Source: paper PMC9350882, “Molecular and Biochemical Differences of the Tandem and Cold-Adapted PET Hydrolases Ple628 and Ple629, Isolated From a Marine Microbial Consortium” (Frontiers in Bioengineering and Biotechnology, 2022)

Tested on: CC(=O)Oc1ccc([N+](=O)[O-])cc1
Assay: purified protein
Type: biochemical, Marinobacter sp.
Settings: PBS pH 7.0, 20 °C, 0.1-2.5 mM substrate

Ple628 (Marinobacter sp.)
Km: 1800 µM | kcat: 4.498 s⁻¹

Ple629 (Marinobacter sp.)
Km: 2100 µM | kcat: 4.742 s⁻¹
